For assay [1], the target named is T1, UPF2L (near full-length UPF2, residues 121-1227) (UniProt Q9HAU5 121-1227).
T1 construct: Construct from Neu-Yilik et al. 2017; also called up-frameshift protein 2; source: E. coli BL21 Rosetta (DE3), purified (Ni-NTA, heparin, SEC)
T1 sequence (looked up): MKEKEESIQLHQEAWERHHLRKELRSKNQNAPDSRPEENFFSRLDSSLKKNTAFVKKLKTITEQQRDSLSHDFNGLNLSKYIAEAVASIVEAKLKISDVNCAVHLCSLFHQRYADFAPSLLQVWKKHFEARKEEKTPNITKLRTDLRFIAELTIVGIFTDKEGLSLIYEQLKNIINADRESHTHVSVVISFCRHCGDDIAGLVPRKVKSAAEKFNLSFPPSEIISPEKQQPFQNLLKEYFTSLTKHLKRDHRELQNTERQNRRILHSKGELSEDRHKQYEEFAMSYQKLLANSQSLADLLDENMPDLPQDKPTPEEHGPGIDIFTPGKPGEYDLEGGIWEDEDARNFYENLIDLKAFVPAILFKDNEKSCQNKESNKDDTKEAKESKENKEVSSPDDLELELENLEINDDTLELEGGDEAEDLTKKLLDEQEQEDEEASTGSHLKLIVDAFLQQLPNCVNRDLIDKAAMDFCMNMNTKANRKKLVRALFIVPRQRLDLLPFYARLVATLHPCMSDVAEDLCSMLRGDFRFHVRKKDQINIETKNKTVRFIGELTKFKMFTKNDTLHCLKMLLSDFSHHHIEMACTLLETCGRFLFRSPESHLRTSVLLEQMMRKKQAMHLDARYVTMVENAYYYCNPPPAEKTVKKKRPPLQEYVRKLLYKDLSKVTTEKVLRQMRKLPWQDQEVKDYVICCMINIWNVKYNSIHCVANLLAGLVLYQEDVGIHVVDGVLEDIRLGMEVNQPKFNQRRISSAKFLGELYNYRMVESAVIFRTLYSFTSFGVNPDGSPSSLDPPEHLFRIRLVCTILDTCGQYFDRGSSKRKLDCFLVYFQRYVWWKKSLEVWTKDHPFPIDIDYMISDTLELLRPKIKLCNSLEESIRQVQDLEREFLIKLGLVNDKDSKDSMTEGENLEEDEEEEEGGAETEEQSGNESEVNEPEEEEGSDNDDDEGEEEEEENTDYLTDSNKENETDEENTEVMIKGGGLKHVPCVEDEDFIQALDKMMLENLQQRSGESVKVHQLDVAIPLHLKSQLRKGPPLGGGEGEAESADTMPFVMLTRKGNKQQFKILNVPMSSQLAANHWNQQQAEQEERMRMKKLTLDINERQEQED
The experiment in a line: native gel or EMSA; 250 nM HEX-labelled hp-RNA mixed with the proteins, 1 h on ice; native 4%-20% Tris-glycine gel, 45 min at 150 V, 4°C; HEX label of the RNA detected; RNA diluted in 25 mM HEPES pH 7.45, 100 mM NaCl, 5% glycerol. To be noted: both partners purified. On the technique in general: Mobility shift assays separate free from complexed probe on a gel.

Assay [2] concerns the target T2, UPF2 MIF4G domain-3 (residues 761-1054) (UniProt Q9HAU5 761-1054).
T2 construct: UPF2, third MIF4G domain, residues 761-1054; Construct from Kadlec et al. 2004; TEV site and His6 tag as said for m1; also called MIF4G-D3; D3; source: E. coli BL21 Rosetta (DE3), purified (Ni-NTA, heparin, SEC)
T2 sequence (looked up): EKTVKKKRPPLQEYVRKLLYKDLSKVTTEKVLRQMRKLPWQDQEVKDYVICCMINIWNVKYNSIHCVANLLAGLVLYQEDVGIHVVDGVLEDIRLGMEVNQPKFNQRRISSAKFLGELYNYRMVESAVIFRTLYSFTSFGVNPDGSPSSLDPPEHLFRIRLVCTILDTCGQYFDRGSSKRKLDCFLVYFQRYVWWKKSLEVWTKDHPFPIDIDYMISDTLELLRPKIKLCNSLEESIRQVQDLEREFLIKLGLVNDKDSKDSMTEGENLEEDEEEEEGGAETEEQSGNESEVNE
The assay is described as above. To be noted: both partners purified.

B1: UPF3B (residues 41-262) (domain or fragment, UniProt Q9BZI7 41-262, looked up)
chain: DRNKEKKEALSKVVIRRLPPTLTKEQLQEHLQPMPEHDYFEFFSNDTSLYPHMYARAYINFKNQEDIILFRDRFDGYVFLDNKGQEYPAIVEFAPFQKAAKKKTKKRDTKVGTIDDDPEYRKFLESYATDNEKMTSTPETLLEEIEAKNRELIAKKTTPLLSFLKNKQRMREEKREERRRREIERKRQREEERRKWKEEEKRKRKDIEKLKKIDRIPERDKL
notes: UPF3B residues 41-262: RNA-recognition motif, NOPS-Like domain and the first coiled coil-like domain; source: E. coli, purified as described (Bufton et al. 2022)
With B1, the binding result in assay [1] and in assay [2] was “binds” throughout.

The values above are taken from article PMC12170185, “Dynamic RNA binding and unfolding by nonsense-mediated mRNA decay factor UPF2” (RNA, 2024).
